Reference: the supplement of paper PMC7125110
± gives the standard error. This sample holds only a part of the variants without activity.

B1: glmS ribozyme (parent)
chain: AUAAAAGCGCCAGAACUACAGAAAUGUAGUUGACGAGGAGGAGGUUUAUCGAAUUUUCGGCGGAUGCCUCCAAA

Variants of: B1
Test: self-cleavage kobs at 10000 uM GlcN6P; higher = faster cleavage; RNA array
Conditions: with glucosamine-6-phosphate
In short: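 kcat and KM were obtained from weighted Michaelis–Menten fits across concentrations of kobs values. Those came from one- or two-exponential decay fits to per-tile medians normalised to baseline and to non-cleaving reference variants. The variants were barcoded ribozymes transcribed in situ by E. coli RNA polymerase on sequenced MiSeq chips and tracked through a hybridised Cy3 probe at 37 °C, with 40 μM to 10 mM glucosamine-6-phosphate in HEPES/KCl/Mg(OAc)2 buffer flowed in.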

Variant	self-cleavage kobs at 10000 uM GlcN6P [s⁻¹]
AUAAAAGCGCCAGAACUACAGAAAUGUAGUUGACGAGUUGGCGGUUUUUCGAAUUUUCGGCGGAUGCCUCCAAA	< 1e-05
AUAAAAGCGCCAGAACUACAGAAAUGUAGUUGACGCGGAGGAGGUAUAUCGAAUUUUAGGCGGAUGCCUCCAAA	< 1e-05
AUAAAAGAGCCAGAACUACAGAAAUGUAGUUGACUAGGAGGAGUUUUAUCGGAUUUUCGGCGGAUGCCUCCAAA	< 1e-05
AUAAAAGCGCCAGAACUACAGAAAUGUAGUUGACCAGGAGGAGGUUUAUCGAAUUUUCAGUGGAUGCCUCCAAA	< 1e-05
AUAAAAGCGCCAGAACUACAGAAAUGUAGGGGACGAGGAGGAGGUCUAUCGAAUUUUCGGCGGAGGCCUCCAAA	5.94e-05 ± 2.6e-05
AUAAAAGCGCCAGAACUACAGAAAUGUACUUCACGAGGGGGAGGUUUAUCGAAUUUUCGGCGGAUGCCUCCAAA	7.25e-05 ± 1.8e-05
AUAAAAGCGCCAGAACUACAGAAAUGUAGUUGACGAGAAGGAGGUGUAUCGAAUUUGAGGCGGAUGCCUCCAAA	< 1e-05
AUAAAGGCGCCAGAACUACAGAAAUGUAGUUGAAGAGGAGGUGGUUUAUCGAAGUUUCGGCGGAUGCCUCCAAA	< 1e-05
AUAAAAGCGCCAGAGCUACAGAAAUGUACUUGACGAGGAGGAUGUUUAUCGAAUUUUCGUCGGAUGCCUCCAAA	< 1e-05
AUAAAUGCGCCAGAACUACAGAAAUGUAGUUGACGAGAAGGAGGUUUAUCGAAUUUUCGGCGGAUCCCUCCAAA	< 1e-05
AUAAAAGCGCCUGAACUACAGAAAUGUAAUUGACGAGGAGGAGGUUUAUCGAAUUUUCGGCGGAUGCCUACAAA	9.81e-05 ± 2.5e-05
AUAAAAGCACCAGAACUACAGAAAUGUAGUUGACGAGGAGGAAGUUUAUCGAAUUUACGGCGGAAGCCACAAAA	< 1e-05
AUAAAAGCGCCAGGACUACAGAAAUGUAGUUGACGAGGAGGAGGUUUAUCGAAUUUUCGGCGGGUGCGUCCAAA	< 1e-05
AUAAAAGCGCCAGAACUACAGAAAUGUAGUUGACGACGAGGAGGUUUGUCGAAUUUUCGGCUGAUGCCUCCAAA	< 1e-05
AUAAAGGCGCCAGAACUACAGAAAUGUAGAUGAUGAGGAGGAGGUUUAUCGAAUUUUCGGCGGAUGGCUCGAAA	7.35e-05 ± 3.3e-05
AUAAAAGCGCCAAAAUUACAGAAAUGUAGUUUACGAGGAGGAGGUUUAUCGAAUUUUCGGCGGAUGCCUCCAAA	0.000302 ± 4.9e-05
AUAAAAGCGCCGGAACUACAGAAAUGUAGUUGACGAGGAGGAGGAUUAUCGAAUUUUCGGCGGAUGCCUCUAAA	0.00191 ± 0.0004
AUAAAAGCGCCAGAACUACAGAAAUGUAGUUGACGAGGAGGAGGUGUAUCGAAUGUUCGGCGGAUUCCUCCAAA	0.000444 ± 0.00018
AUAAAAGCGCAAGAACUACAGAAAUGUAGUUGACGAGGAAGAGGUUUAUCGAAUGUUCGGCGGAUGCCUCGAAA	< 1e-05

Variant	self-cleavage kobs at 10000 uM GlcN6P [s⁻¹]
AUAAAAGCGCCAGAACUACAGAAAUGUAGUUGACGAGGUGGAGGUUUAUCGUAUUGUCGGCGGAUGCCUCCAAA	8.75e-05 ± 1.8e-05
AUAAAAGGGCCAGAACUACAGAAAUGUAGUUUACGAGGAGGAGGUUUAUCGAAUUUUCGGCGGAUUCCUCCAAA	< 1e-05
AUAAAAGCGCCAGAACUACAGAAAUGUAGUUUACGAGGAUGAGGUUUAUCGAAUUUUCGGCGGAUGCCUUCAAA	5.9e-05 ± 1.3e-05
AUAAAAGCUCCAGAACUACAGAAAUGUAGUUGACGAGGAGUAGGUUUAUCGAAUUUUAGCCGGAUGCCUCCAAA	< 1e-05
AUAAAAGCGCCAGAGCUACAGAAAUGUAGUUGACGAGGAGGAGGUUUAACGAAUUUUCGGCUGAUGCCUCCAAA	< 1e-05
AUAAAAGCGCCAGUACUACAGAAAUGUAGUUGACCAGGAGAAGGUAUAUCGAAUUUUCGGCGGAUGCCUCCAAA	< 1e-05
AUAAAAGCGCCAGAACUACAGAAAUGUAGUUGACGAGGGGGAGGUUUAUCGAAAUUUCGGCUGAUACCUCCAAA	< 1e-05
AUAAAAGCGCCAGGACUACAGAAAUGUAGUUGACGAGGACGAGGUUUAGGCAAUUUUCGGCGGAUGCCUCCAAA	< 1e-05
AUAAAAGCGCAAGAACUACAGAAAUGUAGUUGACGAGGAGGAGGAGUAUCGAAUUUUCGGCGGAUGCCUCCAAA	0.000161 ± 4e-05
AUAAAAGUGCCAGAACUACAGAAAUGUAGUUGACGAGGAUGAGGUUUAUCGAAUUUUCGGUGGAUGUCUCCAAA	< 1e-05
AUAAAAGCGCCAGAACUACAGAAAUGUAGUUGACGAGGAGGAGGUUUACCUAAUUUUCGGCGGAUGCCUGCAAA	< 1e-05
AUAAAAGCGGAAGAACUACAGAAAUGUAGUUGACGAGCAGGAUGUUUAUCCAAUUCUCGCCGGAUGCCUCCAAA	< 1e-05
AUAAAAACGCCAGAACUACAGAAAUGUAAUUGACGAGAAGGAGUUUUGUCGAAUUUUCGGCGGAUUCCUCCAAA	< 1e-05
AUAAAAGCGCGAGAACUACAGAAAUGUAGUUGACCAGGAGGAGGUUUAUCGAAUUUUCGGCGUAUGACUCCAAA	< 1e-05
AUAAAAGCGCCAGAACUACAGAAAUGUAGUUGACGACGAGGAGGUUUAUCGAAUUUUCUGGGGAUGCCUCCAAA	< 1e-05
AUAAAAGCACCAGAACUACAGAAAUGUAGUUGAAGAGGAGGAGGUUUAUCGAAUUUUCGGCGGGUGCCUGCAAA	< 1e-05
AUAAAAGCGCCUGAACUACAGAAAUGUAGUUGAAGAGGUGGAGGUUUAUCGAAUUUUCGGCGGAUGCCUUCAAA	< 1e-05
AUAAAAGCGCCCGAACUACAGAAAUGUAGUUGACGAGUAGGAGGUUUAUCGUAUUUUAGGCGGAAGUCUCCAAA	< 1e-05
